The text below walks through data of PMC7804408.

This assay has as its target trigger factor (TF) (E. coli) (UniProt P0A850). The assay can be described thus: SPR; TF immobilised on a CM5 chip by amine coupling, analytes injected at 20 μL/min for 90 s; Biacore X, 22 °C; 10 mM HEPES pH 7.5, 150 mM NaCl, 3 mM EDTA, 0.005% P20; steady-state response against concentration, one-site Langmuir model; apparent Kd for ClpX. In general terms: Surface plasmon resonance follows binding to a sensor surface in real time, without labels.

trigger factor (TF) (E. coli), sequence (P0A850 whole entry): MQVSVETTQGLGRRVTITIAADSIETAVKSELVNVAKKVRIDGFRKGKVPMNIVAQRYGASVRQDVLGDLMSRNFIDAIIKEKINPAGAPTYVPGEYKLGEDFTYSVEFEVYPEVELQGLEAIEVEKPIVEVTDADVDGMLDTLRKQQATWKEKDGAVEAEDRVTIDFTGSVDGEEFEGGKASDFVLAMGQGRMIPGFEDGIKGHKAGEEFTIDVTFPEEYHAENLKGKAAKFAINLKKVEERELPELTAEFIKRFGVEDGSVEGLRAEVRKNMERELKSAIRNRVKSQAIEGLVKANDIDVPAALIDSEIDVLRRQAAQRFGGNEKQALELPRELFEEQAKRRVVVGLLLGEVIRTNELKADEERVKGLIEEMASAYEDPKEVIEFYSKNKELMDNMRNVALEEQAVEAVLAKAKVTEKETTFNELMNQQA

As for “ClpX∆ZBD (AAA+ domain of ClpX) (domain or fragment)”, the Kd came out at 2000 nM.
